Measurements reported in patent publication US20160083442.

In the case of “purified p38 proteins activated by incubation with active Zap70”, the “phosphorylation of ATF2 (in vitro kinase assay, [32P]ATP, phosphorimager)” value ((11R)-71-85) is reported as “incubation with (11R)-71-85, but not (11R)-Ctrl, led to a decrease in phosphorylation of ATF2. In addition, the decrease in ATF2 phosphorylation was dependent on the dose of (11R)-71-85” and the “phosphorylation of ATF2 (in vitro kinase assay, [32P]ATP, phosphorimager)” value ((11R)-Ctrl) is reported as “incubation with (11R)-71-85, but not (11R)-Ctrl, led to a decrease in phosphorylation of ATF2”.
